# Assay results: patent publication US20220175781A1, “CD40L COMPOSITIONS AND METHODS FOR TUNABLE REGULATION” (Obsidian Therapeutics, Inc., priority 2019, published 2022)
# B1: OT-001966: ER regulated CD40L construct, longest linker (protein)
# chain: MSLALSLTADQMVSALLDAEPPILYSEYDPTRPFSEASMMGLLTNLADRELVHMINWAKRVPGFVDLTLHDQVHLLECAWMEILMIGLVWRSMEHPGKLLFAPNLLLDRDQGKCVEGGVEIFDMLLATSSRFRMMNLQGEEFVCLKSIILLNSGVYTFLSSTLKSLEEKDHIHRVLDKITDTLIHLMAKAGLTLQQQHQRLAQLLLILSHIRHMSNKRMEHLYSMKCKNVVPLSDLLLEMLDAHRLGGSGGGSGGGSGMIETYNQTSPRSAATGLPISMKIFMYLLTVFLITQMIGSALFAVYLHRRLDKIEDERNLHEDFVFMKTIQRCNTGERSLSLLNCEEIKSQFEGFVKDIMLNKEETKKENSFEMQKGDQNPQIAAHVISEASSKTTSVLQWAEKGYYTMSNNLVTLENGKQLTVKRQGLYYIYAQVTFCSNREASSQAPFIASLCLKSPGRFERILLRAANTHSSAKPCGQQSIHLGGVFELQPGASVFVNVTDPSQVSHGTGFTSFGLLKL
# Key:
# [1] = target: OT-001669 (Linker (MH); CD40L (aa 14-261 of WT); stop) (human) (UniProt P29965); experiment: cell-based or functional assay
# [2] = target: OT-001668 (Linker (MH); CD40L (aa 1-261 of WT, (S110-G116) del); stop) (human) (UniProt P29965); experiment: cell-based or functional assay
# [3] = target: OT-001661 (MH Linker; CD40L; stop) (human) (UniProt P29965); experiment: cell-based or functional assay
# HEK293T cells = experiment: Linker length, ER regulated CD40L surface expression, transfected HEK293T cells; type: cell-based, human; settings: 1 μM Bazedoxifene 24 hours
# Protocol: To explore the effect of linker length in the DD mediated regulation of CD40L, constructs with varying linker lengths were generated. OT-001966, OT-001965, OT-001967, OT-001666 constructs were generated and are presented here in decreasing linker length order. HEK293T cells were transiently transfected with these constructs and treated with 1 μM Bazedoxifene for 24 hours. Median fluorescence intensity, an indicator of surface expression of CD40L, was analyzed by flow cytometry.
# Jurkat cells = experiment: Linker length, ER regulated CD40L, % CD40L positive Jurkat cells; type: cell-based
# Protocol: Jurkat cells were lentivirally transduced and 24 hours after transduction were treated with DMSO or 1 μM Bazedoxifene for another 24 hours and analyzed by flow cytometry for surface expression of CD40L. […] In Table 33, SR indicates stabilization ratio.
# [4] = system: T cells (CD4 and CD8 positive); experiment: Bazedoxifene dose response, CD40L MFI in CD4 and CD8 positive T cells (day 4, freeze/thaw, restimulation); type: cell-based
# Protocol: Dose response with Bazedoxifene in T cells were conducted for OT-001966, OT-001967, OT-001666. Expression of CD40L was measured at (a) day 4 after transduction, (b) after freezing and thawing the cells or (c) after freezing and thawing the cells followed by restimulation with CD3/CD28 beads. The CD40L MFI (median fluorescence intensity) within CD4 and CD8 positive subpopulations is shown in Table 34 and Table 35 respectively.
# T cells (CD4+ and CD8+) = experiment: Regulation of CD40L in T cells by different drug responsive domains; type: cell-based
molecule,measurement,setting,value
recombinant human CD40-Fc receptor (from UniProt P25942 21-193) (Fc fusion),"CD40L levels in supernatant (shedding, ELISA) of Jurkat cells cultured 6 hours with 1.25 µg/ml hCD40-Fc; untreated 2137.69",[1],8440
same,"CD40L levels in supernatant (shedding, ELISA) of Jurkat cells cultured 6 hours with 1.25 µg/ml hCD40-Fc; untreated 10",[2],10
same,"CD40L levels in supernatant (shedding, ELISA) of Jurkat cells cultured 6 hours with 1.25 µg/ml hCD40-Fc; untreated 1382.06",[3],3600
B1,"percentage of cells with high CD40L surface expression, ranking of constructs",HEK293T cells,highest percentage of cells with high CD40L surface expression
same,Percent of Jurkat cells expressing CD40L,Jurkat cells; 1 μM Bazedoxifene,46%
same,SR,"Jurkat cells; 1 μM Bazedoxifene versus DMSO, % CD40L positive Jurkat cells",15.3
same,Percent of Jurkat cells expressing CD40L,Jurkat cells; DMSO,3%
same,"percentage of cells with high CD40L surface expression, ranking of constructs","Jurkat cells; Jurkat cells, 1 μM Bazedoxifene 24 hours",highest percentage of cells with high CD40L surface expression
same,CD40L expression (MFI),"[4]; CD4+ cells, Day 4, Bazedoxifene 0.01 nM",415
same,CD40L expression (MFI),"[4]; CD4+ cells, Day 4, Bazedoxifene 0.1 nM",499
same,CD40L expression (MFI),"[4]; CD4+ cells, Day 4, Bazedoxifene 1 nM",545
same,CD40L expression (MFI),"[4]; CD4+ cells, Day 4, Bazedoxifene 10 nM",616
same,CD40L expression (MFI),"[4]; CD4+ cells, Day 4, Bazedoxifene 100 nM",1028
same,CD40L expression (MFI),"[4]; CD4+ cells, Day 4, Bazedoxifene 1000 nM",1551
same,CD40L expression (MFI),"[4]; CD4+ cells, Day 4, Bazedoxifene 10000 nM",1095
same,CD40L expression (MFI),"[4]; CD4+ cells, Post Thaw, Bazedoxifene 0.01 nM",183
same,CD40L expression (MFI),"[4]; CD4+ cells, Post Thaw, Bazedoxifene 0.1 nM",185
same,CD40L expression (MFI),"[4]; CD4+ cells, Post Thaw, Bazedoxifene 1 nM",193
same,CD40L expression (MFI),"[4]; CD4+ cells, Post Thaw, Bazedoxifene 10 nM",213
same,CD40L expression (MFI),"[4]; CD4+ cells, Post Thaw, Bazedoxifene 100 nM",258
same,CD40L expression (MFI),"[4]; CD4+ cells, Post Thaw, Bazedoxifene 1000 nM",292
same,CD40L expression (MFI),"[4]; CD4+ cells, Post Thaw, Bazedoxifene 10000 nM",577
same,CD40L expression (MFI),"[4]; CD4+ cells, Restim, Bazedoxifene 0.01 nM",340
same,CD40L expression (MFI),"[4]; CD4+ cells, Restim, Bazedoxifene 0.1 nM",340
same,CD40L expression (MFI),"[4]; CD4+ cells, Restim, Bazedoxifene 1 nM",364
same,CD40L expression (MFI),"[4]; CD4+ cells, Restim, Bazedoxifene 10 nM",472
same,CD40L expression (MFI),"[4]; CD4+ cells, Restim, Bazedoxifene 100 nM",561
same,CD40L expression (MFI),"[4]; CD4+ cells, Restim, Bazedoxifene 1000 nM",741
same,CD40L expression (MFI),"[4]; CD4+ cells, Restim, Bazedoxifene 10000 nM",447
same,CD40L expression (MFI),"[4]; CD8+ cells, Day 4, Bazedoxifene 0.01 nM",168
same,CD40L expression (MFI),"[4]; CD8+ cells, Day 4, Bazedoxifene 0.1 nM",176
same,CD40L expression (MFI),"[4]; CD8+ cells, Day 4, Bazedoxifene 1 nM",190
same,CD40L expression (MFI),"[4]; CD8+ cells, Day 4, Bazedoxifene 10 nM",212
same,CD40L expression (MFI),"[4]; CD8+ cells, Day 4, Bazedoxifene 100 nM",442
same,CD40L expression (MFI),"[4]; CD8+ cells, Day 4, Bazedoxifene 1000 nM",669
same,CD40L expression (MFI),"[4]; CD8+ cells, Day 4, Bazedoxifene 10000 nM",438
same,CD40L expression (MFI),"[4]; CD8+ cells, Post Thaw, Bazedoxifene 0.01 nM",113
same,CD40L expression (MFI),"[4]; CD8+ cells, Post Thaw, Bazedoxifene 0.1 nM",117
same,CD40L expression (MFI),"[4]; CD8+ cells, Post Thaw, Bazedoxifene 1 nM",121
same,CD40L expression (MFI),"[4]; CD8+ cells, Post Thaw, Bazedoxifene 10 nM",148
same,CD40L expression (MFI),"[4]; CD8+ cells, Post Thaw, Bazedoxifene 100 nM",204
same,CD40L expression (MFI),"[4]; CD8+ cells, Post Thaw, Bazedoxifene 1000 nM",230
same,CD40L expression (MFI),"[4]; CD8+ cells, Post Thaw, Bazedoxifene 10000 nM",375
same,CD40L expression (MFI),"[4]; CD8+ cells, Restim, Bazedoxifene 0.01 nM",340
same,CD40L expression (MFI),"[4]; CD8+ cells, Restim, Bazedoxifene 0.1 nM",340
same,CD40L expression (MFI),"[4]; CD8+ cells, Restim, Bazedoxifene 1 nM",364
same,CD40L expression (MFI),"[4]; CD8+ cells, Restim, Bazedoxifene 10 nM",472
same,CD40L expression (MFI),"[4]; CD8+ cells, Restim, Bazedoxifene 100 nM",561
same,CD40L expression (MFI),"[4]; CD8+ cells, Restim, Bazedoxifene 1000 nM",741
same,CD40L expression (MFI),"[4]; CD8+ cells, Restim, Bazedoxifene 10000 nM",447
same,"CD40L expression, ranking of constructs","[4]; CD8 positive cells, freeze/thaw followed by restimulation with CD3/CD28 beads",highest ER regulated CD40L expression
same,CD40L positive,"T cells (CD4+ and CD8+); All Cells, 1 uM Baz",58.1%
same,MFI,"T cells (CD4+ and CD8+); All Cells, 1 uM Baz",490
same,CD40L positive,"T cells (CD4+ and CD8+); All Cells, DMSO",14%
same,MFI,"T cells (CD4+ and CD8+); All Cells, DMSO",174
same,CD40L positive,"T cells (CD4+ and CD8+); CD4+, 1 uM Baz",62.8%
same,MFI,"T cells (CD4+ and CD8+); CD4+, 1 uM Baz",543
same,CD40L positive,"T cells (CD4+ and CD8+); CD4+, DMSO",17%
same,MFI,"T cells (CD4+ and CD8+); CD4+, DMSO",197
same,CD40L positive,"T cells (CD4+ and CD8+); CD8+, 1 uM Baz",42.3%
same,MFI,"T cells (CD4+ and CD8+); CD8+, 1 uM Baz",339
same,CD40L positive,"T cells (CD4+ and CD8+); CD8+, DMSO",2.2%
same,MFI,"T cells (CD4+ and CD8+); CD8+, DMSO",95.6
